In publication PMC7067772, “Digenic inheritance of mutations in EPHA2 and SLC26A4 in Pendred syndrome” (Nature Communications, 2020) one finds Kd and ratio to parent data, which are given here for four molecules.

The target of experiment [1] is ephrin-A5 (Homo sapiens) (UniProt P52803). The settings on record: cited from earlier work.
Experiment [2] deals with ephrin-B2 (Homo sapiens) (UniProt P52799). To be noted: cited from earlier work.
Experiment [3] deals with ephrin-A4 (Homo sapiens) (UniProt P52798). To be noted: cited from earlier work.
Chain of ephrin-A4 (Homo sapiens) (P52798 26-170): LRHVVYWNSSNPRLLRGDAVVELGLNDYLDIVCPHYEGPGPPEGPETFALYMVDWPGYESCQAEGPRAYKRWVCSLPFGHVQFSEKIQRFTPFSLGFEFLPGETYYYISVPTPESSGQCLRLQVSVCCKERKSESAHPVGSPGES
In experiment [4] the target is V5-EphA2 (pcDNA3.2-V5-EphA2) (UniProt P29317). Briefly: co-immunoprecipitation with densitometric quantification. To be noted: n = 3; parent: est. 1.0; read off a plot.
Chain of V5-EphA2 (pcDNA3.2-V5-EphA2) (P29317 24-976): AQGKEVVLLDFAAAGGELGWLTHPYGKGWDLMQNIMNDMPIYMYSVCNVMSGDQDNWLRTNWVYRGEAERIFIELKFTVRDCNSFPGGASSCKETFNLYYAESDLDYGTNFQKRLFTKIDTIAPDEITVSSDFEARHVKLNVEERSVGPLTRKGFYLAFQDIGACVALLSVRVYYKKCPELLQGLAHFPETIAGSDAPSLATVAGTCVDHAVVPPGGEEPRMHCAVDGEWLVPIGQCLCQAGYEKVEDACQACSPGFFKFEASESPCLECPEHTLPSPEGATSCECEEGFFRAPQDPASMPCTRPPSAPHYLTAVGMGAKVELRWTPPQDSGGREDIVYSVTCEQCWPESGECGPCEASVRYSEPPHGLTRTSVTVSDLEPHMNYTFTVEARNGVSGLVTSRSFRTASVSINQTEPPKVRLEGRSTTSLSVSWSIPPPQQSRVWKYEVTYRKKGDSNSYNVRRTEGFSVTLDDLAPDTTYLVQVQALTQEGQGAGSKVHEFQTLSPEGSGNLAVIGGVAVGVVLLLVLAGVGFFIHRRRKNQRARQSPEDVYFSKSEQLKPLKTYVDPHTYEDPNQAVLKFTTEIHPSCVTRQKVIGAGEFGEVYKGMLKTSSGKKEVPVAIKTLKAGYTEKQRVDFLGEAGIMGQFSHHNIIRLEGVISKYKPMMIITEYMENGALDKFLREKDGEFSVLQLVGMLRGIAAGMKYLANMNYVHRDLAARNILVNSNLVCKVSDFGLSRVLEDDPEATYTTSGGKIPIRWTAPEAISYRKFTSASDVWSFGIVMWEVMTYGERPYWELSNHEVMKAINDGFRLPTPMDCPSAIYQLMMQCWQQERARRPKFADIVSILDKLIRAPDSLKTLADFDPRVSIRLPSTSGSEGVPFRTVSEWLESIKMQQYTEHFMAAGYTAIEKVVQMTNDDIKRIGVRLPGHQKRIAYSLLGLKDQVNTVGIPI
The target in experiment [5] is T1, fc-fusion protein of the EphA2 extracellular domain (UniProt P29317 24-537).
T1 construct: EphA2 extracellular domain; Detected in the ELISA with biotinylated 1F7 mAb; also called EphA2 Fc
T1 sequence (P29317 24-537): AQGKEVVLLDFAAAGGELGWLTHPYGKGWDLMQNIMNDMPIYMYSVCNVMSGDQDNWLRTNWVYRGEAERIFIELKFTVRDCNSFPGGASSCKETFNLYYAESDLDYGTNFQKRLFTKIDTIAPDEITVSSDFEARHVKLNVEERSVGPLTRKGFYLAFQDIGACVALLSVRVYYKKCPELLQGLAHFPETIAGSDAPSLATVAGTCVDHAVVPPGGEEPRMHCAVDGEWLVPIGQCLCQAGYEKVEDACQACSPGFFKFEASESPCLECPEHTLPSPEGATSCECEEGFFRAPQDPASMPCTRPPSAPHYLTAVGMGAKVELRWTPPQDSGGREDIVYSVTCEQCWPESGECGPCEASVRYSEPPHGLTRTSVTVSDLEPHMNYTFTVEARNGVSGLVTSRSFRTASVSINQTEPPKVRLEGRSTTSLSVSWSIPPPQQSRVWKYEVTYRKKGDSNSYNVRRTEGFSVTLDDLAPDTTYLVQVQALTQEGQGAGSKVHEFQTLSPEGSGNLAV
Kind of experiment: ELISA; plates coated with ephrin-A5 Fc or ephrin-B2 Fc (3 μg/ml, 50 mM carbonate buffer pH 9.5, overnight at 4 °C); diluted EphA2 Fc analyte 1 h at room temperature; detection with biotinylated 1F7 mAb and UltraStreptavidin-HRP, OD492 nm (the results say that the EphA2 Fc was immobilised). To be noted: both partners purified.

EphA4 (from UniProt P54764): the Kd (usually the constant that tells how readily two partners part at equilibrium) in experiment [1] was 360 nM; in experiment [2], 10800 nM; in experiment [3], 36 nM.

As for “myc-tagged pendrin (pCMV-Myc-pendrin) (from UniProt O43511) F355L”, in experiment [4], the ratio to parent was determined as 0.98.

B1: ephrin-A5 Fc fusion protein (Fc fusion, UniProt P52803 21-203, looked up)
chain: QDPGSKAVADRYAVYWNSSNPRFQRGDYHIDVCINDYLDVFCPHYEDSVPEDKTERYVLYMVNFDGYSACDHTSKGFKRWECNRPHSPNGPLKFSEKFQLFTPFSLGFEFRPGREYFYISSAIPDNGRRSCLKLKVFVRPTNSCMKTIGVHDRVFDVNDKVENSLEPADDTVHESAEPSRGEN
notes: ephrin-A5
On to B1, for which binding in experiment [5] was characterised by a dissociation constant (Kd) of 2 nM.

B2: soluble ephrin-B2 extracellular domain-Fc fusion protein (Fc fusion, UniProt P52799 28-229, looked up)
chain: IVLEPIYWNSSNSKFLPGQGLVLYPQIGDKLDIICPKVDSKTVGQYEYYKVYMVDKDQADRCTIKKENTPLLNCAKPDQDIKFTIKFQEFSPNLWGLEFQKNKDYYIISTSNGSLEGLDNQEGGVCQTRAMKILMKVGQDASSAGSTRNKDPTRRPELEAGTNGRSSTTSPFVKPNPGSSTDGNSAGHSGNNILGSEVALFA
notes: ephrin-B2 extracellular domain; also called ephrin-B2-Fc; ephrin-B2 Fc chimera protein
As to B2, binding in experiment [5] was characterised by a dissociation constant (Kd) of 85 nM.
